Measured values reported in US20120225075A1 (LABRYS BIOLOGICS, published 2012).
Values belong to the binder of their own block, whether it stands above or below them.

Tests used:
[1] = molecular target: T1, N-LC-biotinylated rat α-CGRP (rat, N-LC-biotinylated); test: SPR (Biacore 3000), Fab over N-biotin CGRP captured on SA chip, 37 °C
T1 construct: Captured on a streptavidin sensor chip; also called α-rat
T1 peptide: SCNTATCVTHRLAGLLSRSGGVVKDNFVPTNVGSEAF
Description: (§1) Interaction analysis was conducted at 25° C. and at 37° C. on a Biacore 3000™ system equipped with streptavidin-coated (SA) sensor chips (Biacore AB, Uppsala, Sweden) using standard Biacore running buffers (HBS-P or HBS-EP). N-LC-biotinylated human and rat α- and β-CGRPs were captured on individual flow cells at low levels (typically 100 response units) to provide the reaction surfaces, while an unmodified flow cell served as a reference channel. Purified Fab fragments of antibodies G1 and G2 were generated. Typically, Fabs were prepared as a two-fold serial dilution using 0.5 μM as the top concentration and injected for 1-min at 100 μl/min allowing up to two hours for the dissociation time. Surfaces were regenerated with a mixture of 50% v/v ethanol+25 mM NaOH for G1 Fab and 2:1 v/v Pierce Gentle Elution Buffer/4M NaCl for G2 Fab. […] The binding responses were double-referenced and fit globally to a simple model using BiaEvaluation v. 4.0 software. Affinities were deduced from the quotient of the kinetic rate constants (KD=koff/kₒₙ).

[2] = molecular target: T2, N-LC-biotinylated human α-CGRP (human (the filing says that cynomolgus …, N-LC-biotinylated)); test: as above
T2 construct: Captured on a streptavidin sensor chip; also called α-human/cyno; α-human
T2 peptide: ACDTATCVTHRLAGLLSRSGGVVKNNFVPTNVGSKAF
Description: as §1

[3] = molecular target: T1, N-LC-biotinylated rat α-CGRP; test: SPR (Biacore 3000), Fab over N-biotin CGRP captured on SA chip, 25 °C
Description: as §1

[4] = molecular target: T3, N-LC-biotinylated human β-CGRP (human (the filing says that cynomolgus …, N-LC-biotinylated)); test: as above
T3 construct: Captured on a streptavidin sensor chip; also called β-human/cyno; β-human
T3 peptide: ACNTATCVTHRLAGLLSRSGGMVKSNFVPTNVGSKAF
Description: as §1

[5] = molecular target: T2, N-LC-biotinylated human α-CGRP; test: as above
Description: as §1

[6] = molecular target: T4, N-LC-biotinylated rat β-CGRP (rat, N-LC-biotinylated (in the assay with CGRP on the chip)); test: SPR, reverse orientation assay format (data not shown)
T4 construct: Captured on a streptavidin sensor chip for G1; also called β-rat
T4 peptide: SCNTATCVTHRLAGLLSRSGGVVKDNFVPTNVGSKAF

[7] = molecular target: T2, N-LC-biotinylated human α-CGRP; test: SPR (Biacore 3000), side-by-side on the same chip at 37 °C, 20-min dissociation time; 37 C; side-by-side on the same chip; 20-min dissociation
Description: as §1
The results for antibody G1 are expressed in Table 1 below. […] Human and cynomolgus monkey have identical sequences; therefore, the human data also apply to cynomolgus.

[8] = molecular target: T1, N-LC-biotinylated rat α-CGRP; test: SPR (Biacore 3000), Fab over N-biotin-CGRP captured on SA chip, 25 °C
Description: as §1

[9] = molecular target: T2, N-LC-biotinylated human α-CGRP; test: as above
Description: as §1

[10] = molecular target: T1, N-LC-biotinylated rat α-CGRP; test: SPR (Biacore 3000), Fab over N-biotin-CGRP captured on SA chip, 37 °C
Description: as §1

[11] = molecular target: T3, N-LC-biotinylated human β-CGRP; test: as above
Description: as §1

[12] = molecular target: T4, N-LC-biotinylated rat β-CGRP; test: as above
Description: as §1

[13] = molecular target: T2, N-LC-biotinylated human α-CGRP; test: as above
Description: as §1

[14] = molecular target: T4, N-LC-biotinylated rat β-CGRP; test: SPR (Biacore 3000), Fab over N-biotin-CGRP captured on SA chip, 37 °C; 37 C; upper bound, 20-min dissociation
Description: as §1
The dissociation of G1 Fab from α-human, β-human, and […] occurs very slowly. As such, the offrate (koff) cannot be measured accurately unless the dissociation phase is monitored for a very long time. As a general rule-of-thumb, the binding response decays at least 5% over the allowed dissociation time for the report of an accurate offrate. […]

[15] = molecular target: T3, N-LC-biotinylated human β-CGRP; test: SPR (Biacore 3000), side-by-side on the same chip, 20-min dissociation time, 37 °C; 37 C; side-by-side on the same chip; 20-min dissociation; rounded figure for three CGRPs
Description: as §1
(§2) The dissociation of G1 Fab from α-human, β-human, and […] occurs very slowly. As such, the offrate (koff) cannot be measured accurately unless the dissociation phase is monitored for a very long time. As a general rule-of-thumb, the binding response decays at least 5% over the allowed dissociation time for the report of an accurate offrate. However, monitoring long dissociation times on the Biacore is hindered by baseline drift, which is particularly challenging when working at the low surface capacities required for kinetic analyses. […] As a result, the offrates for β-CGRPs cannot be resolved as accurately as those for α-CGRPs.

[16] = molecular target: T4, N-LC-biotinylated rat β-CGRP; test: as above
Description: as §1, §2

[17] = molecular target: T2, N-LC-biotinylated human α-CGRP; test: as above
Description: as §1, §2

125I-human α-CGRP = molecular target: T5, 125I-human α-CGRP (human, 125I label (position not given)); test: competition radioligand binding: 125I-human α-CGRP on SK-N-MC cell membranes (CGRP1-receptor), 25 °C; IC50 given as binding sites (IgG value multiplied by 2); 25 C; radioligand competition on SK-N-MC membranes; whole IgG, IC50 said to be converted to binding sites
T5 peptide: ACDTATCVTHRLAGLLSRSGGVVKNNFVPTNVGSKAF
Description: A binding assay was performed to measure the IC₅₀ of anti-CGRP G1 antibody in blocking human α-CGRP from binding to the CGRP1-receptor. Membranes (25 μg) from SK-N-MC cells were incubated for 90 minutes at 25° C. in incubation buffer (50 mM Tris-HCl, pH 7.4, 5 mM MgCl₂, 0.1% BSA) containing […] ¹²⁵I-human α-CGRP and varying concentrations of anti-CGRP antibody (0.015 nM-33 nM) in a total volume of 1 ml. Incubation was terminated by filtration through a glass microfiber filter (GF/B, 1 μm) which had been blocked with 0.5% polyethylenimine. The protein-bound radioactivity was determined in a gamma counter.

B1: Fab fragment of antibody G2 (Fab, V domains shown)
VH: EVQLQQSGPELVKPGASVKMSCKASGYTFTSSVMHWVKQKPGQGLEWIGYINPYNDGTKYNEKFKGKATLTSDKSSSTAYMELSSLTSEDSAVYYCAKGGNDGYWGQGTTLTVSS
VL: EIVLTQSPTTMAASPGEKITITCSASSSISSIYLHWYQQKPGFSPKVLIYRASNLASGVPARFSGSGSGTSYSLTIGTMEAEDVATYYCQQGSTIPFTFGSGTKLEIKR
notes: also called G2 Fab; G2 antibody
- Kd [1]: 3400 pM
- T1/2 [1]: 6.8 min
- koff [1]: 0.0017 s⁻¹
- kon [1]: 500000 M⁻¹ s⁻¹
- Kd [2]: 41900 pM
- T1/2 [2]: 2.96 min
- koff [2]: 0.0039 s⁻¹
- kon [2]: 93000 M⁻¹ s⁻¹
- Kd [3]: 900 pM
- T1/2 [3]: 54 min
- koff [3]: 0.000214 s⁻¹
- kon [3]: 231000 M⁻¹ s⁻¹
- Kd [4]: 19900 pM
- T1/2 [4]: 7.13 min
- koff [4]: 0.00162 s⁻¹
- kon [4]: 81400 M⁻¹ s⁻¹
- Kd [5]: 19100 pM
- T1/2 [5]: 10.1 min
- koff [5]: 0.00115 s⁻¹
- kon [5]: 60300 M⁻¹ s⁻¹

B3: Fab fragment of antibody G1 (Fab, V domains shown)
VH: EVQLVESGGGLVQPGGSLRLSCAASGFTFSNYWISWVRQAPGKGLEWVAEIRSESDASATHYAEAVKGRFTISRDNAKNSLYLQMNSLRAEDTAVYYCLAYFDYGLAIQNYWGQGTLVTVSS
VL: EIVLTQSPATLSLSPGERATLSCKASKRVTTYVSWYQQKPGQAPRLLIYGASNRYLGIPARFSGSGSGTDFTLTISSLEPEDFAVYYCSQSYNYPYTFGQGTKLEIK
notes: also called G1 Fab; G1 antibody
- Kd [7]: 163 pM
- T1/2 [8]: 187 min
- koff [8]: 6.18e-05 s⁻¹
- kon [8]: 50800 M⁻¹ s⁻¹
- T1/2 [9]: 1480 min
- koff [9]: 7.8e-06 s⁻¹
- kon [9]: 186000 M⁻¹ s⁻¹
- T1/2 [10]: 28.8 min
- koff [10]: 0.000399 s⁻¹
- kon [10]: 155000 M⁻¹ s⁻¹
- Kd [11]: < 155 pM
- T1/2 [11]: 166 min
- koff [11]: < 6.98e-05 s⁻¹
- kon [11]: 451000 M⁻¹ s⁻¹
- Kd [12]: < 152 pM
- T1/2 [12]: 147 min
- koff [12]: < 7.85e-05 s⁻¹
- kon [12]: 516000 M⁻¹ s⁻¹
- T1/2 [13]: 318 min
- koff [13]: 3.63e-05 s⁻¹
- kon [13]: 587000 M⁻¹ s⁻¹
- Kd [14]: < 150 pM
- Kd [15]: ~150 pM
- Kd [16]: ~150 pM
- Kd [17]: ~150 pM

The remaining lines, values ahead:

- binding result [6]: binds
B2: antibody G2 (form in the reverse orientation assay not stated) (antibody, V domains shown)
VH: EVQLQQSGPELVKPGASVKMSCKASGYTFTSSVMHWVKQKPGQGLEWIGYINPYNDGTKYNEKFKGKATLTSDKSSSTAYMELSSLTSEDSAVYYCAKGGNDGYWGQGTTLTVSS
VL: EIVLTQSPTTMAASPGEKITITCSASSSISSIYLHWYQQKPGFSPKVLIYRASNLASGVPARFSGSGSGTSYSLTIGTMEAEDVATYYCQQGSTIPFTFGSGTKLEIK
notes: Anti-rat CGRP mouse monoclonal antibody

- IC50 (125I-human α-CGRP): 1800 pM
B4: anti-CGRP G1 antibody (whole IgG) (antibody, V domains shown)
VH: EVQLVESGGGLVQPGGSLRLSCAASGFTFSNYWISWVRQAPGKGLEWVAEIRSESDASATHYAEAVKGRFTISRDNAKNSLYLQMNSLRAEDTAVYYCLAYFDYGLAIQNYWGQGTLVTVSS
VL: EIVLTQSPATLSLSPGERATLSCKASKRVTTYVSWYQQKPGQAPRLLIYGASNRYLGIPARFSGSGSGTDFTLTISSLEPEDFAVYYCSQSYNYPYTFGQGTKLEIKR
notes: also called antibody G1; anti-CGRP antibody
